How the values were obtained:
CD8+ T-cells = assay: LSC/T-cell reaction assay (gene edited LSCs co-cultured with CD8+ T-cells); format: cell-based, human; details: B2M/HLA-Class I negative edited LSCs co-cultured 10 days with CD8+ T-cells from 4 donors
Procedure: An LSC/T-cell assay was performed in flat bottom 96well synthemax coated plates in duplicates and incubated in 5% CO2 at 37° C. for 10 days. RPMI-1640 supplemented with HEPES (100 μM), non-essential aas (10×), sodium pyruvate (10 mM), 2-Mercapthoethanol (10×), 10% FBS and 1% Penicillin-Streptomycin (Gibco by Life Technologies) was used as medium for co-culture. Alternatively, RPMI-1640 supplemented with HEPES (10 mM), non-essential aas (1×), sodium pyruvate (1 mM), 2-Mercapthoethanol (1×), 10% FBS and 1% Penicillin-Streptomycin (Gibco by Life Technologies) was used as medium for co-culture.
One day before co-culture, LSCs (stimulator cells) were passed and cultured to a confluency of around 70% (30′000-50′000 cells) and cultured with LSC medium including compound. On day two, peripheral blood mononuclear cells (PBMC) were separated using EDTA blood with the Ficoll-Paque method (GE Healthcare Life Sciences, cat #17-1440-03). […]
After 10 days, CD8+ cells were transferred to a U-bottomed 96-well plate and washed 3 times using autoMAC rinsing solution (Miltenyi Biotec, Cat #130-091-222) including MACS BSA stock solution (Miltenyi Biotec, Cat #130-091-376). Cells were measured on a BD LSRFortessa X-20. FACS data were analyzed using BD FACSDiva software and FlowJo software.

[1] = tested on: genomic DNA purified from male human peripheral blood mononuclear cells; assay: Biochemical method for potential off-target genomic sites cleaved by Cas9 and B2M guides; details: guide concentration of 64 nM
From the text: A biochemical method (See, e.g., Cameron et al., Nature Methods. 6, 600-606; 2017) was used to determine potential off-target genomic sites cleaved by Cas9 and selected B2M guides.

[2] = tested on: potential off-target sites; assay: Off-target activity detection in limbal stem cells by targeted PCR and NGS; format: cell-based, human; details: edited LSCs vs non-edited PBMCs; positive sites of sequenced loci
Procedure: Potential CRISPR/Cas9-mediated cutting sites identified above were evaluated using targeted PCR and NGS in genome-edited expanded LSCs.
Selected sgRNAs (SEQ ID NO: 120, 162, 166, 167, 171, and 175) were further analyzed by amplicon sequencing in edited and non-edited cells. Primers flanking the potential off-target sites for each guide were used to detect indels by NGS analysis in edited LSCs and non-edited peripheral blood mononuclear cells. Sites that had either (1) a difference in mean indel percentage between edited and unedited cells greater than 0.5%; or (2) a p value less than 0.05 between edited and unedited indel were further analyzed. NGS sequence reads for such sites were assessed for characteristic indel patterns near the putative Cas9 cut site.

[3] = tested on: beta-2-microglobulin gene; assay: CRISPR/Cas9-mediated deletion of B2M in LSCs by nucleofection, FACS analysis; format: cell-based, human; details: Cas9 protein (SEQ ID NO: 107):sgRNA 1:10 nucleofection, LSCs passage 0, FACS
Procedure: The sgRNA ID SEQ NO 120 was tested for the ability to reduce or eliminate expression of B2M in LSCs using a nucleofection approach as follows.
LSCs at passage 0 were trypsinized with TryLE™Express Enzym (ThermoFisher, Cat #12605010) for 15 min in 5% CO2 at 37° C. After scraping the cells, the reaction was stopped by using cell culture medium containing 10% Serum and transferred to a falcon tube. After counting cells using Vi-cell 200′000 cells were prepared per reaction by transferring 200′000 cells in single tubes and centrifuged at 1000 rpm for 5 min.
The supernatant was aspirated using manually pipetting to avoid cell loss and the cells were resuspended in the Stem cell nucleofector solution II (Lonza, Cat #VPH-5022). Resuspend cells in nucleofector solution immediately before adding the Cas9 protein:sgRNA mixture. A stock of 100 μM (3.23 μg/μl) was prepared resuspending 5.1 nanomoles of single-guideRNA (sgRNA) in 51 μl 10 mM Tris buffer pH7.4. […]
In order to prevent cells sticking to the wall, collection tubes were filled with FACS buffer for 30 minutes before the sort and aspirated before adding the collection medium. […] FACS data were analyzed using BD FACSDiva software and FlowJo software.

B1: 1-CR004366: gRNA targeting B2M (Dharmacon); targeting domain GAGUAGCGCGAGCACAGCUA (SEQ ID NO: 108); sgRNA SEQ ID NO: 120 (nucleic acid)
guide: GAGUAGCGCGAGCACAGCUAGUUUUAGAGCUAGAAAUAGCAAGUUAAAAUAAGGCUAGUCCGUUAUCAACUUGAAAAAGUGGCACCGAGUCGGUGCUUUU
modifications: listed as RNA, chemistry not given here
- T-cell immunoresponse (CD8+ T-cells): almost completely eliminated
- off-target Site_Count [1]: 69
- Number of sites positive for off-target activity in LSCs [2]: zero
- LSCs with deletion of B2M and elimination of HLA A, B and C (cells not expressing B2M) [3]: about 70%

— patent publication US20200131474A1, “METHODS AND COMPOSITIONS FOR OCULAR CELL THERAPY” (Novartis AG, priority 2018, published 2020)
